Earlier results, collected in paper PMC2883863.

What was measured:
[1] = biological target: Cys32 (UniProt position 33, FWAEWCGPCKM); settings: not stated (quoted literature value for E. coli thioredoxin)
[2] = biological target: Cys30 (UniProt position 49, FFSFFCPHCYQ); settings: not stated (quoted literature value for E. coli DsbA)

| Substance | pKa [1] | pKa [2] |
| --- | --- | --- |
| Thioredoxin 1 (Escherichia coli) | 7.5 |  |
| Thiol:disulfide interchange protein DsbA (Escherichia coli) |  | 3.5 |
